In the assay the target is target receptor on brush border membrane vesicles (BBMVs) from C. includens (Pseudoplusia includens (C. includens)).

In the case of “PtIP-65Aa polypeptide (Pteridophyta Insecticidal Protein-65Aa)”, the concentration for a half-maximal effect (EC50) turned out to be 14 nM.

(Values after US20250327089A1.)
